We go through four molecules from paper PMC2808448 (Biochemistry, 2010).

The target of data set [1] is T1, Sco3058 (Streptomyces coelicolor, UniProt Q93J45).
T1 sequence (Q93J45 1-400): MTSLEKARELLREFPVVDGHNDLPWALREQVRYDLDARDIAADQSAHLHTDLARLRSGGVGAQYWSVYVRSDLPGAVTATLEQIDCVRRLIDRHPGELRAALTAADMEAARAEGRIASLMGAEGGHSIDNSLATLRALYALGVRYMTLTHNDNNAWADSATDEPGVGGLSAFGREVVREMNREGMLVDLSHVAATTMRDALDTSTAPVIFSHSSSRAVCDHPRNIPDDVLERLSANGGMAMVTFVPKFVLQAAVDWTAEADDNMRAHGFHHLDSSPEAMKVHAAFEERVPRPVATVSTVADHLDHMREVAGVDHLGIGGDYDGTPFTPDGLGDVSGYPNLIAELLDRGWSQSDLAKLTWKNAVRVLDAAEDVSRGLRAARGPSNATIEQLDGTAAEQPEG
Kind of data set: crystal structure at […] Å. Type of data set: biochemical.

Data set [2] deals with T1, Sco3058. As to the kind of experiment: ninhydrin-based dipeptidase assay, L-Leu-D-Ala substrate. Type of data set: biochemical.
Substrate in the data set “purified protein”: CC(C)C[C@@H](NC(=O)[C@@H](N)Cc1ccc(O)cc1)C(=O)O
Kind of data set: purified protein. The note with it: […] Zn2+.

Substrate in data set [3]: CC(C)C[C@H](N)C(=O)N[C@H](C)C(=O)O
Kind of data set: steady-state kinetics of hydrolysis by purified enzyme. Type of data set: biochemical, Streptomyces coelicolor. The conditions noted are these: […] Zn2+.

Substrate in data set [4]: N=C(N)NCCC[C@H](N)C(=O)N[C@H](CC(=O)O)C(=O)O
Described as above. Type of data set: biochemical, Streptomyces coelicolor. The conditions noted are these: […] Zn2+.

Substrate in data set [5]: CSCC[C@H](N)C(=O)N[C@H](CC(C)C)C(=O)O
The data set is described as above. Type of data set: biochemical, Streptomyces coelicolor. The note with it: […] Zn2+.

Substrate in data set [6]: CC(C)C[C@H](N)C(=O)N[C@H](CCC(=O)O)C(=O)O
Described as above. The note with it: […] Zn2+. Type of data set: biochemical, Streptomyces coelicolor.

Substrate in data set [7]: CSCC[C@H](N)C(=O)N[C@H](CCC(=O)O)C(=O)O
The description is as above. Type of data set: biochemical, Streptomyces coelicolor. The conditions noted are these: […] Zn2+.

What is called Ki is the equilibrium dissociation constant of an inhibitor or competing ligand from its target. Low values mean tighter binding, high ones weaker binding. On Sco3058 [1], `O=C(O)CC(O)(CC(=O)O)C(=O)O` [citrate] registered a Ki of 25000 ± 15000 µM.
As for `NC(Cc1ccc(O)cc1)P(=O)(O)CC(CC(=O)O)C(=O)O` (racemic) [compound 3, phosphinate pseudodipeptide mimic of Tyr-Asp], affinity at Sco3058 [2] was put at a Ki of 1.1 ± 0.2 µM.
The same measure, in the same setting: then `NC(Cc1ccccc1)P(=O)(O)CC(CC(=O)O)C(=O)O` (racemic) [compound 2, phosphinate pseudodipeptide mimic of Phe-Asp], with 2.3 ± 0.3 µM.

B1: Sco3058 (Streptomyces coelicolor A3(2)) (protein)
chain: T1 sequence (Q93J45 1-400)
Broadly, the Km is the concentration of substrate that gives half-maximal velocity. As usually defined, the kcat is the number of substrate molecules converted per active site and unit of time at saturation. In general, kcat/Km refers to the second-order rate constant that governs catalysis at low substrate concentration. For B1, the Km in “purified protein” was found to be 170 ± 10 µM; in data set [3] it was 750 ± 40 µM; in data set [4] it was 140 ± 20 µM; in data set [5], 560 ± 30 µM; in data set [6] it was 550 ± 30 µM; in data set [7], 890 ± 40 µM. Moreover, the kcat turned out to be 24 s⁻¹ in “purified protein”; 160 ± 3 s⁻¹ in data set [3]; 107 ± 3.2 s⁻¹ in data set [4]; 194 ± 4 s⁻¹ in data set [5]; 135 ± 2 s⁻¹ in data set [6]; 340 ± 4 s⁻¹ in data set [7]. In addition, the kcat/Km was determined as 150000 M⁻¹ s⁻¹ in the data set “purified protein”; 210000 ± 10000 M⁻¹ s⁻¹ in data set [3]; 760000 ± 90000 M⁻¹ s⁻¹ in data set [4]; 350000 ± 30000 M⁻¹ s⁻¹ in data set [5]; 250000 ± 10000 M⁻¹ s⁻¹ in data set [6]; 380000 ± 20000 M⁻¹ s⁻¹ in data set [7].
